In US20190091326A1:

Experiments:
[1] = target: MN V1/V2 scaffold, wildtype, gD-tagged, produced in GnTI- 293 HEK cells (herpes simplex virus 1; HIV-1 isolate MN) (UniProt Q69091); experiment: ELISA; table row MN V1/V2 wt, GnTI-
[2] = target: ZM233 V1/V2 scaffold, wildtype, gD-tagged, produced in normal 293 HEK cells (herpes simplex virus 1; HIV-1 isolate ZM233); experiment: ELISA; table row ZM233 V1/V2 wt, column 293
[3] = target: 108060 V1/V2 scaffold, wildtype, gD-tagged, produced in normal 293 HEK cells (herpes simplex virus 1; HIV-1 isolate 108060); experiment: ELISA; table row 108060 V1/V2 wt, column 293
[4] = target: A244 V1/V2 scaffold, wildtype, gD-tagged, produced in GnTI- 293 HEK cells (herpes simplex virus 1; HIV-1 isolate A244) (UniProt Q69091); experiment: ELISA; table row A244 V1/V2 wt, GnTI-
Bal.01 V1/V2 wt (293) = experiment: ELISA; table row Bal.01 V1/V2 wt, column 293
CAP.45 V1/V2 wt (293) = experiment: ELISA; table row CAP.45 V1/V2 wt, column 293
[5] = target: A244 V1/V2 scaffold, engineered, gD-tagged, produced in normal 293 HEK cells (herpes simplex virus 1; HIV-1 isolate A244) (UniProt Q69091); experiment: ELISA; table row A244 V1/V2.eng1*, column 293
ZM197 V1/V2 wt (GnTI-) = experiment: ELISA; table row ZM197 V1/V2 wt, GnTI-
[6] = target: 108060 V1/V2 scaffold, wildtype, gD-tagged, produced in GnTI- 293 HEK cells (herpes simplex virus 1; HIV-1 isolate 108060); experiment: ELISA; table row 108060 V1/V2 wt, GnTI-
CAP.45 V1/V2 wt (GnTI-) = experiment: ELISA; table row CAP.45 V1/V2 wt, GnTI-
[7] = target: JRFL-E168K V1/V2 scaffold, wildtype, gD-tagged, produced in normal 293 HEK cells (herpes simplex virus 1; HIV-1 isolate JRFL) (UniProt Q69091); experiment: ELISA; table row JRFL-E168K V1/V2 wt, column 293
[8] = target: 108060-I169K V1/V2 scaffold, gD-tagged, produced in GnTI- 293 HEK cells (herpes simplex virus 1; HIV-1 isolate 108060); experiment: ELISA; table row 108060 V1/V2 I169K, GnTI-
[9] = target: JRFL-E168K V1/V2 scaffold, wildtype, gD-tagged, produced in GnTI- 293 HEK cells (herpes simplex virus 1; HIV-1 isolate JRFL) (UniProt Q69091); experiment: ELISA; table row JRFL-E168K V1/V2 wt, GnTI-
[10] = target: A244 V1/V2 scaffold, wildtype, gD-tagged, produced in normal 293 HEK cells (herpes simplex virus 1; HIV-1 isolate A244) (UniProt Q69091); experiment: capture ELISA on 34.1 anti-gD; scaffold made in 293 cells
[11] = target: ZM233 V1/V2 scaffold, engineered, gD-tagged, produced in GnTI- 293 HEK cells (herpes simplex virus 1; HIV-1 isolate ZM233); experiment: capture ELISA on 34.1 anti-gD; scaffold made in GnTI- cells
[12] = target: 108060 I169K/E172V V1/V2 scaffold, gD-tagged, produced in GnTI- 293 HEK cells (herpes simplex virus 1; HIV-1 isolate 108060); experiment: ELISA; table row 108060 V1/V2 I169K/E172V, GnTI-
[13] = target: A244 V1/V2 scaffold, engineered, Strep-tag/6x Histidine-tag, produced in normal 293 cells (HIV-1 isolate A244); experiment: SPR (Biacore 3000), PG9 captured by anti-human Fc, scaffold flowed
[14] = target: A244 V1/V2 scaffold, wildtype (unmutated), Strep-tag/6x Histidine-tag, expressed in GnTI- cells (HIV-1 isolate A244); experiment: as above
[15] = target: 108060 I169K/E172V/T161M/N156I/S164P/L165G V1/V2 scaffold, gD-tagged, produced in normal 293 HEK (293F) cells (herpes simplex virus 1; HIV-1 isolate 108060); experiment: capture ELISA on 34.1 anti-gD; purified scaffold made in 293F cells
[16] = target: 108060 I169K/E172V/T161M/N156I V1/V2 scaffold, gD-tagged, produced in GnTI- 293 HEK cells (herpes simplex virus 1; HIV-1 isolate 108060); experiment: ELISA; table row 108060 I169K/E172V/T161M/N156I, GnTI-
[17] = target: 108060 I169K/E172V/T161M/N156I/S164P/L165G V1/V2 scaffold, gD-tagged, produced in GnTI- 293 HEK cells (herpes simplex virus 1; HIV-1 isolate 108060); experiment: capture ELISA on 34.1 anti-gD; purified scaffold made in GnTI- cells
[18] = target: UCSC1207 V1/V2/V3 scaffold (glycosylation site moved from N334 to N332) grown in GnTI- cells (HIV-1 isolate A244 (clade CRF01-AE)); experiment: ELISA, mAb titrated on scaffold, absorbance 492 nm; curve 512 (1207 GNTI-)
MN mutant, Mock = experiment: ELISA of mock- or Endo H-digested scaffold, PG9 titrated, absorbance 490 nm
ZM233 mutant, Mock = experiment: as above
[19] = target: A244-rgp120 grown in GnTI- cells (HIV-1 isolate A244); experiment: ELISA, mAb titrated on gp120, absorbance 492 nm; curve 495 (A244 gp120 GNTI-)

## PG9 monoclonal antibody
[1]
  EC50: > 10 µg/mL
[2]
  EC50: 0.077 µg/mL
[3]
  EC50: > 10 µg/mL
[4]
  EC50: 0.000741 µg/mL
Bal.01 V1/V2 wt (293)
  EC50: 0.853 µg/mL
CAP.45 V1/V2 wt (293)
  EC50: 0.312 µg/mL
[5]
  EC50: 0.099 µg/mL
ZM197 V1/V2 wt (GnTI-)
  EC50: 0.0303 µg/mL
[6]
  EC50: > 10 µg/mL
CAP.45 V1/V2 wt (GnTI-)
  EC50: 0.0527 µg/mL
[7]
  EC50: > 10 µg/mL
[8]
  EC50: 0.679 µg/mL
[9]
  EC50: > 10 µg/mL
[10]
  EC50: 0.893 µg/mL
[11]
  EC50: 0.01 µg/mL
[12]
  EC50: 0.113 µg/mL
[13]
  koff: 0.0019 s⁻¹
[14]
  koff: 0.00077 s⁻¹
[15]
  EC50: 0.156 µg/mL
[16]
  EC50: 0.0281 µg/mL
[17]
  EC50: 0.00834 µg/mL
[18]
  EC50: 0.02 µg/mL
MN mutant, Mock
  EC50 (read off the curve): 0.1 µg/mL
ZM233 mutant, Mock
  EC50 (read off the curve): 0.03 µg/mL
[19]
  EC50: 0.02 µg/mL
